# Data reported in patent US20170096493A1 (EISAI R AND D MANAGEMENT, published 2017).
# T1: Human Notch4-NRR domain Fc fusion protein (human, UniProt Q99466 1046-1445, limits assumed)
# T1 construct: Expressed in a CHO cell line, used from culture supernatant; 1 is named; also called Human Notch4-NRR Fusion Protein; not shown: Fc
# T1 sequence: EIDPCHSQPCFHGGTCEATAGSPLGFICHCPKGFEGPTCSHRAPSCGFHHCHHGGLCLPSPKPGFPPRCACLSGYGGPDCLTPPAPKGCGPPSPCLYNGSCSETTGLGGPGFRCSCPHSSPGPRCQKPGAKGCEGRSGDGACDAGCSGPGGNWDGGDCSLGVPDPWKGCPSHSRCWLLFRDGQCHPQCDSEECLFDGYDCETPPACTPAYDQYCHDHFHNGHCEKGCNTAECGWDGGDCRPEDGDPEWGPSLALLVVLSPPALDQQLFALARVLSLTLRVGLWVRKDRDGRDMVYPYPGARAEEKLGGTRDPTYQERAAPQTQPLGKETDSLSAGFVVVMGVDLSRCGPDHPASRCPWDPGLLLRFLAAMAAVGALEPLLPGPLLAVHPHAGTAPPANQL
# Target: T1, Human Notch4-NRR domain Fc fusion …
# Assay: SPR (Biacore) as for Table 30; Notch4-NRR-Fc captured, antibody injected; averaged, N=2
# Experimental: (§1) Kinetic analysis of further anti-Notch4 inhibitory humanized antibodies was carried out as follows. Human Notch4-NRR domain Fc fusion proteins were expressed with a CHO cell line. The antigen in the culture supernatant was captured by the anti-human Notch4 antibody fixed on a CM5 sensor chip that recognizes different epitopes of human Notch4. The humanized anti-human Notch4 antibody was then injected onto the sensor chip at various concentrations. The interaction and disassociation constants thereof were calculated according to manufacturer's instructions.
Kd [nM],koff [s⁻¹],kon [M⁻¹ s⁻¹],Binder
4.87,0.0196,3.71e+06,"HK1L3 (antibody, human IgG2, kappa, V domains shown, Humanized IgG2 (V234A, G237A)/κ; also called No. 8) VH: EVQLVESGGGLVQPGGSLRLSCAASGFTFSSYGMSWVRQAPGKGLEYVSTINSNGGRTYYPDSVKGRFTISRDNSKNTLYLQMGSLRAEDMAVYYCARDQGFAYWGQGTLVTVSS VL: EIVMTQSPATLSVSPGERATLSCKASQDVGTAVAWYQQKPGQAPRLLIYWASTRHTGIPARFSGSGSGTEFTLTISSLQSEDFAVYYCQQYSSYPWTFGQGTKVEIKR"

# Target: T1, Human Notch4-NRR domain Fc fusion …
# Assay: SPR (Biacore) as for Table 30; Notch4-NRR-Fc captured, antibody injected; averaged, N=6
# Experimental: as §1
Kd [nM],koff [s⁻¹],kon [M⁻¹ s⁻¹],Binder
0.549,0.00112,2.07e+06,"HK2L5 (antibody, human IgG2, kappa, Humanized IgG2 (V234A, G237A)/κ; also called No. 15) heavy: EVQLVESGGGLVQPGGSLRLSCAASGFTFSSYGMSWVRQAPGKGLELVSTINSNGGRTYYPDSVKGRFTISRDNSKNTLYLQMGSLRAEDMAVYYCARDQGFAYWGQGTLVTVSSASTKGPSVFPLAPCSRSTSESTAALGCLVKDYFPEPVTVSWNSGALTSGVHTFPAVLQSSGLYSLSSVVTVPSSNFGTQTYTCNVDHKPSNTKVDKTVERKCCVECPPCPAPPAAAPSVFLFPPKPKDTLMISRTPEVTCVVVDVSHEDPEVQFNWYVDGVEVHNAKTKPREEQFNSTFRVVSVLTVVHQDWLNGKEYKCKVSNKGLPAPIEKTISKTKGQPREPQVYTLPPSREEMTKNQVSLTCLVKGFYPSDIAVEWESNGQPENNYKTTPPMLDSDGSFFLYSKLTVDKSRWQQGNVFSCSVMHEALHNHYTQKSLSLSPGK light: DIQMTQSPSSLSASVGDRVTITCKASQDVGTAVAWYQQKPGKSPKLLIYWASTRHTGVPSRFSGSGSGTDFTLTISSLQPEDVATYFCQQYSSYPWTFGQGTKVEIKRTVAAPSVFIFPPSDEQLKSGTASVVCLLNNFYPREAKVQWKVDNALQSGNSQESVTEQDSKDSTYSLSSTLTLSKADYEKHKVYACEVTHQGLSSPVTKSFNRGEC"
0.682,0.00109,1.62e+06,"HK2L3 (antibody, human IgG2, kappa, Humanized IgG2 (V234A, G237A)/κ; also called No. 13) heavy: EVQLVESGGGLVQPGGSLRLSCAASGFTFSSYGMSWVRQAPGKGLELVSTINSNGGRTYYPDSVKGRFTISRDNSKNTLYLQMGSLRAEDMAVYYCARDQGFAYWGQGTLVTVSSASTKGPSVFPLAPCSRSTSESTAALGCLVKDYFPEPVTVSWNSGALTSGVHTFPAVLQSSGLYSLSSVVTVPSSNFGTQTYTCNVDHKPSNTKVDKTVERKCCVECPPCPAPPAAAPSVFLFPPKPKDTLMISRTPEVTCVVVDVSHEDPEVQFNWYVDGVEVHNAKTKPREEQFNSTFRVVSVLTVVHQDWLNGKEYKCKVSNKGLPAPIEKTISKTKGQPREPQVYTLPPSREEMTKNQVSLTCLVKGFYPSDIAVEWESNGQPENNYKTTPPMLDSDGSFFLYSKLTVDKSRWQQGNVFSCSVMHEALHNHYTQKSLSLSPGK light: not shown"
0.897,0.00104,1.22e+06,"HK3L3 (antibody, human IgG2, kappa, Humanized IgG2 (V234A, G237A)/κ; also called No. 18) heavy: EVQLVESGGGLVQPGGSLRLSCAASGFTFSSYGMSWVRQAPGKGLELVATINSNGGRTYYPDSVKGRFTISRDNSKNTLYLQMGSLKAEDMAVYYCARDQGFAYWGQGTLVTVSSASTKGPSVFPLAPCSRSTSESTAALGCLVKDYFPEPVTVSWNSGALTSGVHTFPAVLQSSGLYSLSSVVTVPSSNFGTQTYTCNVDHKPSNTKVDKTVERKCCVECPPCPAPPAAAPSVFLFPPKPKDTLMISRTPEVTCVVVDVSHEDPEVQFNWYVDGVEVHNAKTKPREEQFNSTFRVVSVLTVVHQDWLNGKEYKCKVSNKGLPAPIEKTISKTKGQPREPQVYTLPPSREEMTKNQVSLTCLVKGFYPSDIAVEWESNGQPENNYKTTPPMLDSDGSFFLYSKLTVDKSRWQQGNVFSCSVMHEALHNHYTQKSLSLSPGK light: not shown"
0.755,0.0012,1.61e+06,"HK3L4 (antibody, human IgG2, kappa, Humanized IgG2 (V234A, G237A)/κ; also called No. 19) heavy: EVQLVESGGGLVQPGGSLRLSCAASGFTFSSYGMSWVRQAPGKGLELVATINSNGGRTYYPDSVKGRFTISRDNSKNTLYLQMGSLKAEDMAVYYCARDQGFAYWGQGTLVTVSSASTKGPSVFPLAPCSRSTSESTAALGCLVKDYFPEPVTVSWNSGALTSGVHTFPAVLQSSGLYSLSSVVTVPSSNFGTQTYTCNVDHKPSNTKVDKTVERKCCVECPPCPAPPAAAPSVFLFPPKPKDTLMISRTPEVTCVVVDVSHEDPEVQFNWYVDGVEVHNAKTKPREEQFNSTFRVVSVLTVVHQDWLNGKEYKCKVSNKGLPAPIEKTISKTKGQPREPQVYTLPPSREEMTKNQVSLTCLVKGFYPSDIAVEWESNGQPENNYKTTPPMLDSDGSFFLYSKLTVDKSRWQQGNVFSCSVMHEALHNHYTQKSLSLSPGK light: not shown"
0.601,0.00102,1.72e+06,"HK3L5 (antibody, human IgG2, kappa, Humanized IgG2 (V234A, G237A)/κ; also called No. 20) heavy: EVQLVESGGGLVQPGGSLRLSCAASGFTFSSYGMSWVRQAPGKGLELVATINSNGGRTYYPDSVKGRFTISRDNSKNTLYLQMGSLKAEDMAVYYCARDQGFAYWGQGTLVTVSSASTKGPSVFPLAPCSRSTSESTAALGCLVKDYFPEPVTVSWNSGALTSGVHTFPAVLQSSGLYSLSSVVTVPSSNFGTQTYTCNVDHKPSNTKVDKTVERKCCVECPPCPAPPAAAPSVFLFPPKPKDTLMISRTPEVTCVVVDVSHEDPEVQFNWYVDGVEVHNAKTKPREEQFNSTFRVVSVLTVVHQDWLNGKEYKCKVSNKGLPAPIEKTISKTKGQPREPQVYTLPPSREEMTKNQVSLTCLVKGFYPSDIAVEWESNGQPENNYKTTPPMLDSDGSFFLYSKLTVDKSRWQQGNVFSCSVMHEALHNHYTQKSLSLSPGK light: DIQMTQSPSSLSASVGDRVTITCKASQDVGTAVAWYQQKPGKSPKLLIYWASTRHTGVPSRFSGSGSGTDFTLTISSLQPEDVATYFCQQYSSYPWTFGQGTKVEIKRTVAAPSVFIFPPSDEQLKSGTASVVCLLNNFYPREAKVQWKVDNALQSGNSQESVTEQDSKDSTYSLSSTLTLSKADYEKHKVYACEVTHQGLSSPVTKSFNRGEC"

# Continued, binder first:
Binder,Kd [nM],koff [s⁻¹],kon [M⁻¹ s⁻¹]
"HK2L4 (antibody, human IgG2, kappa, Humanized IgG2 (V234A, G237A)/κ; also called No. 14) heavy: EVQLVESGGGLVQPGGSLRLSCAASGFTFSSYGMSWVRQAPGKGLELVSTINSNGGRTYYPDSVKGRFTISRDNSKNTLYLQMGSLRAEDMAVYYCARDQGFAYWGQGTLVTVSSASTKGPSVFPLAPCSRSTSESTAALGCLVKDYFPEPVTVSWNSGALTSGVHTFPAVLQSSGLYSLSSVVTVPSSNFGTQTYTCNVDHKPSNTKVDKTVERKCCVECPPCPAPPAAAPSVFLFPPKPKDTLMISRTPEVTCVVVDVSHEDPEVQFNWYVDGVEVHNAKTKPREEQFNSTFRVVSVLTVVHQDWLNGKEYKCKVSNKGLPAPIEKTISKTKGQPREPQVYTLPPSREEMTKNQVSLTCLVKGFYPSDIAVEWESNGQPENNYKTTPPMLDSDGSFFLYSKLTVDKSRWQQGNVFSCSVMHEALHNHYTQKSLSLSPGK light: not shown",0.634,0.00117,1.89e+06
"HA2L4 (antibody, human IgG2, kappa, Humanized IgG2 (V234A, G237A)/κ; also called No. 29) heavy: EVQLVESGGGLVQPGGSLRLSCAASGFTFSSYGMSWVRQAPGKGLELVSTINSNGGRTYYANSVKGRFTISRDNSKNTLYLQMGSLRAEDMAVYYCARDQGFAYWGQGTLVTVSSASTKGPSVFPLAPCSRSTSESTAALGCLVKDYFPEPVTVSWNSGALTSGVHTFPAVLQSSGLYSLSSVVTVPSSNFGTQTYTCNVDHKPSNTKVDKTVERKCCVECPPCPAPPAAAPSVFLFPPKPKDTLMISRTPEVTCVVVDVSHEDPEVQFNWYVDGVEVHNAKTKPREEQFNSTFRVVSVLTVVHQDWLNGKEYKCKVSNKGLPAPIEKTISKTKGQPREPQVYTLPPSREEMTKNQVSLTCLVKGFYPSDIAVEWESNGQPENNYKTTPPMLDSDGSFFLYSKLTVDKSRWQQGNVFSCSVMHEALHNHYTQKSLSLSPGK light: not shown",0.738,0.00169,2.33e+06
"HA2L3 (antibody, human IgG2, kappa, Humanized IgG2 (V234A, G237A)/κ; also called No. 28) heavy: EVQLVESGGGLVQPGGSLRLSCAASGFTFSSYGMSWVRQAPGKGLELVSTINSNGGRTYYANSVKGRFTISRDNSKNTLYLQMGSLRAEDMAVYYCARDQGFAYWGQGTLVTVSSASTKGPSVFPLAPCSRSTSESTAALGCLVKDYFPEPVTVSWNSGALTSGVHTFPAVLQSSGLYSLSSVVTVPSSNFGTQTYTCNVDHKPSNTKVDKTVERKCCVECPPCPAPPAAAPSVFLFPPKPKDTLMISRTPEVTCVVVDVSHEDPEVQFNWYVDGVEVHNAKTKPREEQFNSTFRVVSVLTVVHQDWLNGKEYKCKVSNKGLPAPIEKTISKTKGQPREPQVYTLPPSREEMTKNQVSLTCLVKGFYPSDIAVEWESNGQPENNYKTTPPMLDSDGSFFLYSKLTVDKSRWQQGNVFSCSVMHEALHNHYTQKSLSLSPGK light: not shown",0.727,0.00137,1.95e+06
"HA2L5 (antibody, human IgG2, kappa, Humanized IgG2 (V234A, G237A)/κ; also called No. 30) heavy: EVQLVESGGGLVQPGGSLRLSCAASGFTFSSYGMSWVRQAPGKGLELVSTINSNGGRTYYANSVKGRFTISRDNSKNTLYLQMGSLRAEDMAVYYCARDQGFAYWGQGTLVTVSSASTKGPSVFPLAPCSRSTSESTAALGCLVKDYFPEPVTVSWNSGALTSGVHTFPAVLQSSGLYSLSSVVTVPSSNFGTQTYTCNVDHKPSNTKVDKTVERKCCVECPPCPAPPAAAPSVFLFPPKPKDTLMISRTPEVTCVVVDVSHEDPEVQFNWYVDGVEVHNAKTKPREEQFNSTFRVVSVLTVVHQDWLNGKEYKCKVSNKGLPAPIEKTISKTKGQPREPQVYTLPPSREEMTKNQVSLTCLVKGFYPSDIAVEWESNGQPENNYKTTPPMLDSDGSFFLYSKLTVDKSRWQQGNVFSCSVMHEALHNHYTQKSLSLSPGK light: DIQMTQSPSSLSASVGDRVTITCKASQDVGTAVAWYQQKPGKSPKLLIYWASTRHTGVPSRFSGSGSGTDFTLTISSLQPEDVATYFCQQYSSYPWTFGQGTKVEIKRTVAAPSVFIFPPSDEQLKSGTASVVCLLNNFYPREAKVQWKVDNALQSGNSQESVTEQDSKDSTYSLSSTLTLSKADYEKHKVYACEVTHQGLSSPVTKSFNRGEC",0.612,0.00136,2.49e+06
